Laboratory results published in PMC4769171.
Residue numbers refer to the chain shown, from its start.

Experiments:
Details in all cases: EMSA: 10 mM Tris pH 7.5, 50 mM KCl, 2.5% glycerol, 0.05% Nonidet P-40, 1 ug poly(dI-dC), 5 fmol probe, 20 min RT; AFM buffer not in the material
[1] = molecular target: His-SsrB (unphosphorylated);His-H-NS (Salmonella Typhimurium) (UniProt Q7CQM5+P0A1S2); test: EMSA supershift
[2] = molecular target: T1, His-SsrB (unphosphorylated) (UniProt Q7CQM5); test: EMSA
T1 sequence: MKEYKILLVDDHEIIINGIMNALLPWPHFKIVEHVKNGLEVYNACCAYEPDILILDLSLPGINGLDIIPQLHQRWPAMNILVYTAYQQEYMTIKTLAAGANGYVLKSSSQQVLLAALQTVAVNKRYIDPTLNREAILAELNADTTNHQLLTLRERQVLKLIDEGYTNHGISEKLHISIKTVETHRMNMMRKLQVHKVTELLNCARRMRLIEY

[3] = molecular target: T2, His-H-NS (Salmonella Typhimurium) (UniProt P0A1S2); test: EMSA
T2 sequence: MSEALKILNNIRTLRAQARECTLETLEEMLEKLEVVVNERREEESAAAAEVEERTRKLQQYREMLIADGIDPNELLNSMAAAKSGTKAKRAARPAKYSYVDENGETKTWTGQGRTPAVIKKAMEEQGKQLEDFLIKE

[4] = molecular target: T3, K179A His-SsrB K179A (UniProt Q7CQM5); test: EMSA
T3 sequence: T1 sequence with K179A

Q: For “AATATTTTTCTCTTTCTGGATAATGGGCTATTTCAACCCACAGCAGTGCAACATCTGTCAGTACTTCTGGTGCCTTTATTTTATGGGGGCAGCTGTCAGATGTGCGATTAAAAAAAGTGGAGTTTCATCA (double strand) [csgD122]”, which binding [1] is on record?
A: Its binding is “binds”.

Q: What about the binding [2] of the same sequence?
A: Its binding is “binds”.

Q: What about the binding [3] of the same sequence?
A: The binding was “binds”.

Q: What about the binding [4] of the same sequence?
A: Its binding is “no binding”.
